# B1: Protein P-30 wild type, P22069 (protein)
# chain: QDWLTFQKKHITNTRDVDCDNIMSTNLFHCKDKNTFIYSRPEPVKAICKGIIASKNVLTTSEFYLSDCNVTSRPCKYKLKKSTNKFCVTCENQAPVHFVGVGSC
# Settings: Lithobates pipiens, MES 100 mM, reversible: yes, whole UniProt chain shown; for unfolding free energy / denaturant m value / denaturant midpoint (higher = more stable): 25 °C
protein,measurement,setting,value
B1,unfolding free energy,"pH 2, Thermal, DSC",8.84 kcal/mol
same,Tm,"pH 2, Thermal, DSC",69.5 °C
same,heat capacity change of unfolding,"pH 2, Thermal, DSC",1.48 kcal/mol/K
same,unfolding enthalpy (calorimetric),"pH 2, Thermal, DSC",102 kcal/mol
same,unfolding enthalpy (van 't Hoff),"pH 2, Thermal, DSC",105 kcal/mol
same,unfolding free energy,"pH 2.5, Thermal, DSC",9.54 kcal/mol
same,Tm,"pH 2.5, Thermal, DSC",72.6 °C
same,heat capacity change of unfolding,"pH 2.5, Thermal, DSC",1.31 kcal/mol/K
same,unfolding enthalpy (calorimetric),"pH 2.5, Thermal, DSC",105 kcal/mol
same,unfolding enthalpy (van 't Hoff),"pH 2.5, Thermal, DSC",104 kcal/mol
same,unfolding free energy,"pH 3, Thermal, DSC",10.8 kcal/mol
same,Tm,"pH 3, Thermal, DSC",76.5 °C
same,heat capacity change of unfolding,"pH 3, Thermal, DSC",1.43 kcal/mol/K
same,unfolding enthalpy (calorimetric),"pH 3, Thermal, DSC",112 kcal/mol
same,unfolding enthalpy (van 't Hoff),"pH 3, Thermal, DSC",110 kcal/mol
same,unfolding free energy,"pH 3.5, Thermal, DSC",12.2 kcal/mol
same,Tm,"pH 3.5, Thermal, DSC",81.6 °C
same,heat capacity change of unfolding,"pH 3.5, Thermal, DSC",1.36 kcal/mol/K
same,unfolding enthalpy (calorimetric),"pH 3.5, Thermal, DSC",120 kcal/mol
same,unfolding enthalpy (van 't Hoff),"pH 3.5, Thermal, DSC",118 kcal/mol
same,unfolding free energy,"pH 4, Thermal, DSC",13.5 kcal/mol
same,Tm,"pH 4, Thermal, DSC",86.8 °C
same,heat capacity change of unfolding,"pH 4, Thermal, DSC",1.24 kcal/mol/K
same,unfolding enthalpy (calorimetric),"pH 4, Thermal, DSC",125 kcal/mol
same,unfolding enthalpy (van 't Hoff),"pH 4, Thermal, DSC",127 kcal/mol
same,unfolding free energy,"pH 5, Thermal, DSC",14.1 kcal/mol
same,Tm,"pH 5, Thermal, DSC",88.3 °C
same,heat capacity change of unfolding,"pH 5, Thermal, DSC",1.53 kcal/mol/K
same,unfolding enthalpy (calorimetric),"pH 5, Thermal, DSC",129 kcal/mol
same,unfolding enthalpy (van 't Hoff),"pH 5, Thermal, DSC",132 kcal/mol
same,denaturant m value,"pH 6, GdnHCl, CD",3.13 kcal/mol/M
same,denaturant midpoint (higher = more stable),"pH 6, GdnHCl, CD",4.5 M
same,unfolding free energy,"pH 6, GdnHCl, CD",14.1 kcal/mol
same,denaturant m value,"pH 6, GdnHCl, Fluorescence",3.08 kcal/mol/M
same,denaturant midpoint (higher = more stable),"pH 6, GdnHCl, Fluorescence",4.5 M
same,unfolding free energy,"pH 6, GdnHCl, Fluorescence",13.9 kcal/mol
same,unfolding free energy,"pH 6, Thermal, DSC",14.2 kcal/mol
same,Tm,"pH 6, Thermal, DSC",88.7 °C
same,heat capacity change of unfolding,"pH 6, Thermal, DSC",1.31 kcal/mol/K
same,unfolding enthalpy (calorimetric),"pH 6, Thermal, DSC",129 kcal/mol
same,unfolding enthalpy (van 't Hoff),"pH 6, Thermal, DSC",128 kcal/mol
same,unfolding free energy,"pH 7, Thermal, DSC",13.7 kcal/mol
same,Tm,"pH 7, Thermal, DSC",87.8 °C
same,heat capacity change of unfolding,"pH 7, Thermal, DSC",1.43 kcal/mol/K
same,unfolding enthalpy (calorimetric),"pH 7, Thermal, DSC",127 kcal/mol
same,unfolding enthalpy (van 't Hoff),"pH 7, Thermal, DSC",123 kcal/mol
same,unfolding free energy,"pH 8, Thermal, DSC",13 kcal/mol
same,Tm,"pH 8, Thermal, DSC",85.4 °C
same,heat capacity change of unfolding,"pH 8, Thermal, DSC",1.39 kcal/mol/K
same,unfolding enthalpy (calorimetric),"pH 8, Thermal, DSC",123 kcal/mol
same,unfolding enthalpy (van 't Hoff),"pH 8, Thermal, DSC",127 kcal/mol

# From FireProtDB (doi:10.1021/bi000415x)
